{"source": "patent US20250361322A1", "about": "(ICONIC THERAPEUTICS, published 2025)", "binders": {"B1": {"name": "29E (antibody, V domains shown)", "VH": "QVQLVESGGGVVQPGRSLRLSCAASGFTFRSYGMHWVRQAPGKGLEWVAVITYDGINKYYADSVEGRFTISRDNSKNTLYLQMNSLRAEDTAVYYCARDGVYYGVYDYWGQGTLVTVSS", "VL": "not shown", "notes": "Human IgG (detected with anti-human IgG-Fc)"}, "B2": {"name": "54E (antibody, human IgG1, V domains shown)", "VH": "QVQLVQSGAEVKKPGASVKVSCKASGYTFANYYMHWVRQAPGQGLEWMGIINPSGGITVYAQKFQGRVTMTRDTSTSTVYMELSSLRSEDTAVYYCARGGSKVAALAFDIWGQGTMVTVSS", "VL": "DIQMTQSPSSLSASVGDRVTITCQASQDISNSLNWYQQKPGKAPKLLIYDASNLETGVPSRFSGSRSGTDFTFTISSLQPEDIATYYCQQYNFHPLTFGGGTKVEIK", "notes": "Human IgG1; also called antibody designated 54E"}, "B3": {"name": "25G9 (antibody, V domains shown)", "VH": "QVQLVQSGAEVKKPGASVKVSCKASGYTFRSYGISWVRQAPGQGLEWMGWVAPYSGNTNYAQKLQGRVTMTTDTSTSTAYMELRSLRSDDTAVYYCARDAGTYSPYGYGMDVWGQGTTVTVSS", "VL": "DIQMTQSPSTLSASVGDRVTITCQASQSIDSWLAWYQQKPGKAPKLLIYSASYLESGVPSRFSGSGSGTEFTLTISSLQPDDFATYYCQRFQSLPPFTFGGGTKVEIK", "notes": "Human IgG (captured by anti-human IgG in the Biacore assay); also called antibody designated 25G9"}}, "key": {"h1-77_r": {"biological_target": "T1, h1-77_r (human/rat chimera)", "T1 construct": "Human TF ECD with residues 1-77 replaced by rat segment", "assay": "live cell staining, flow cytometry, transfected HEK293", "method": "(§1) To establish binding of the anti-human TF antibodies to the various TF constructs, HEK293 cells were transfected with a DNA plasmid that co-expresses the TF construct and a green fluorescent protein marker. […] Upon acquisition of 80,000 live events on a flow cytometer, live cells marked with the fluorescent marker were analyzed for the degree of staining by the anti-TF antibody."}, "h78-107_r.v2": {"biological_target": "h78-107_r.v2 (human/rat chimera)", "assay": "live cell staining, flow cytometry, transfected HEK293", "method": "as §1"}, "rTF (rat TF) [1]": {"biological_target": "T2, rTF (rat TF) (rat, UniProt P42533 29-252)", "assay": "live cell staining, flow cytometry, transfected HEK293", "method": "as §1"}, "h1-107_r": {"biological_target": "T3, h1-107_r (human/rat chimera)", "T3 chain": "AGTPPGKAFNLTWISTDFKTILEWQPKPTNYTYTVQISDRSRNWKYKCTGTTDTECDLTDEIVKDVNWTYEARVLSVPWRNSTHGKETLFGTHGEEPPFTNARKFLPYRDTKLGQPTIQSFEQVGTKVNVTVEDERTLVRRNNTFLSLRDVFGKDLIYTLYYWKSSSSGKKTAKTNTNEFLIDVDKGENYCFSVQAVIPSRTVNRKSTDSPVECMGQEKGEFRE", "assay": "live cell staining, flow cytometry, transfected HEK293", "method": "as §1"}, "r141-194_h": {"biological_target": "r141-194_h (rat/human chimera, UniProt P42533 29-252)", "assay": "live cell staining, flow cytometry, transfected HEK293", "method": "as §1"}, "hTF_N171H_T197K": {"biological_target": "T4, hTF_N171H_T197K (human, UniProt P13726 33-251)", "T4 chain": "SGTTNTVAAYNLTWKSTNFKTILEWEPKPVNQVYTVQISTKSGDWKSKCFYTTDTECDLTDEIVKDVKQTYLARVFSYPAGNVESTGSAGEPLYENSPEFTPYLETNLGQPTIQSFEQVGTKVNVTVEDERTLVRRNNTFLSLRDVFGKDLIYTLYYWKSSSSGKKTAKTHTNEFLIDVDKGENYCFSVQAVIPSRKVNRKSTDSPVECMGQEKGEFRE", "assay": "live cell staining, flow cytometry, transfected HEK293", "method": "as §1"}, "rTF (rat TF) [2]": {"biological_target": "T2, rTF (rat TF)", "assay": "live cell staining, flow cytometry, transfected HEK293", "remark": "listed apart in the source", "method": "as §1"}, "[3]": {"biological_target": "T5, hTF (human Tissue Factor construct) (human, UniProt P13726 33-251)", "T5 construct": "also called human TF", "assay": "live cell staining, flow cytometry, transfected HEK293", "method": "as §1"}, "[4]": {"biological_target": "T6, human Tissue Factor on human TF-positive cells (human, UniProt P13726 33-295)", "T6 construct": "also called hTF; CD142", "assay": "competition flow cytometry on MDA-MB-231 cells: unlabeled antibody titration first, then 20 nM 39A-Alexa488 as the competitor"}, "[5]": {"biological_target": "T7, full-length mouse TF with a C-terminal FLAG tag on Flp-In-CHO cells (mouse, UniProt P20352 29-294)", "T7 construct": "also called CHO-mTF; mouse TF-positive CHO cells", "assay": "flow cytometry, antibody titration on CHO cells expressing mouse TF"}, "[6]": {"biological_target": "T8, cynomolgus monkey TF ECD-His6 (cynomolgus monkey (Macaca fascicularis))", "T8 construct": "Expi293-derived; also called TF-His; cTF", "T8 chain": "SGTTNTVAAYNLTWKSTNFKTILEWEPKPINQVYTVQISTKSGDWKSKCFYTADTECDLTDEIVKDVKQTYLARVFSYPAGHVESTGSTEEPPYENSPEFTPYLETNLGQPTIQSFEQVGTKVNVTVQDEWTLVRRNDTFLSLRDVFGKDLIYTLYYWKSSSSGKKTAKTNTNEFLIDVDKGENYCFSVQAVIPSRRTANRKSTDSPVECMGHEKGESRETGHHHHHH", "assay": "SPR (Biacore), TF-His over coupled antibody"}, "human TF ECD-His6 [7]": {"biological_target": "T9, human TF ECD-His6 (human, UniProt P13726 33-251)", "T9 construct": "Expi293-derived; Biacore used TF-His; also called TF-His; hTF", "assay": "SPR (Biacore), TF-His over coupled antibody", "method": "(§2) Kinetic measurements for the anti-TF antibodies were conducted on an Octet QK384 (Pall ForteBio, Fremont, CA, USA) or a Biacore (GE Healthcare Bio-Sciences).\nFor the Biacore-based measurements, the antibody was covalently coupled to a CM5 or C1 chip using an amine-coupling kit (GE Healthcare Bio-Sciences). Association between the anti-TF antibodies and a five-point three-fold titration of TF-His starting at 25 to 500 nM was measured for 300 sec. Subsequently, dissociation between the anti-TF antibody and TF-His was measured for up to 1800 sec. Kinetic data was analyzed and fitted globally using a 1:1 binding model."}, "[8]": {"biological_target": "T8, cynomolgus monkey TF ECD-His6", "assay": "BLI (ForteBio Octet)", "method": "as §2\n(§3) Briefly, ForteBio affinity measurements were performed by loading IgGs on-line onto AHC sensors. Sensors were equilibrated off-line in assay buffer for 30 min and then monitored on-line for 60 seconds for baseline establishment. Sensors with loaded IgGs were exposed to 100 nM antigen (human, cynomolgus, or mouse TF) for 3 min, afterwards they were transferred to assay buffer for 3 min for off-rate measurement. Alternatively, binding measurements were obtained by loading biotinylated TF monomer on SA sensors followed by exposure to 100 nM antibody Fab in solution. Kinetic data was analyzed and fitted using a 1:1 Langmuir binding model and the KD was calculated by dividing the koff by the kₒₙ."}, "human TF ECD-His6 [9]": {"biological_target": "T9, human TF ECD-His6", "assay": "BLI (ForteBio Octet)", "method": "as §2, §3"}, "[10]": {"biological_target": "T6, human Tissue Factor on human …", "assay": "competition flow cytometry on MDA-MB-231 cells: antibody titration first, then 20 nM FVII-Fc-Alexa488 as the blocked ligand"}, "[11]": {"biological_target": "T7, full-length mouse TF with a C-terminal …", "assay": "flow cytometry on CHO cells expressing mouse TF, MFI at 250 nM antibody", "method": "(§4) After 2 washes, dead cells were labeled with TO-PRO-3 Iodide (ThermoFisher Scientific) and samples were analyzed on a CytoFLEX flow cytometer (Beckman Coulter, Brea, CA, USA) or Novocyte flow cytometer (ACEA Biosciences, San Diego, CA, USA). The median fluorescence intensities (MFIs) at each dilution were plotted and cell EC₅₀'s were derived using a 4-parameter binding model in Prism (GraphPad, La Jolla, CA, USA)."}, "[12]": {"biological_target": "T6, human Tissue Factor on human …", "assay": "flow cytometry, antibody titration on A431 cells (human TF), 4-parameter fit of MFI", "method": "as §4"}, "[13]": {"biological_target": "T10, rTF (rat TF) construct on HEK293 cells (rat, UniProt P42533 29-252)", "T10 construct": "not shown: transmembrane/cytoplasmic anchor of the cell-surface construct", "T10 sequence (P42533 29-252 limits assumed)": "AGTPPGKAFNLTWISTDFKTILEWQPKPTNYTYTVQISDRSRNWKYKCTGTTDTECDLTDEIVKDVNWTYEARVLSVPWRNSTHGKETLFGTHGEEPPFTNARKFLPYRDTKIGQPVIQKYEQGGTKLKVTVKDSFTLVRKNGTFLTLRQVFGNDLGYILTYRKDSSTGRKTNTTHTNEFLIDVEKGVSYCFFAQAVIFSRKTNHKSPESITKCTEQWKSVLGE", "assay": "live cell staining, HEK293 cells"}, "[14]": {"biological_target": "T6, human Tissue Factor on human …", "assay": "flow cytometry, titration of unconjugated antibody on HCT-116 cells (human TF), 4-parameter fit of MFI"}, "[15]": {"biological_target": "T6, human Tissue Factor on human …", "assay": "flow cytometry, antibody titration on HCT-116 cells (endogenous human TF), 4-parameter fit of MFI", "method": "as §4"}, "pig TF-His": {"biological_target": "T11, pig TF-His (Pig (Sus scrofa))", "T11 construct": "also called pig TF ECD-His; pTF", "T11 chain": "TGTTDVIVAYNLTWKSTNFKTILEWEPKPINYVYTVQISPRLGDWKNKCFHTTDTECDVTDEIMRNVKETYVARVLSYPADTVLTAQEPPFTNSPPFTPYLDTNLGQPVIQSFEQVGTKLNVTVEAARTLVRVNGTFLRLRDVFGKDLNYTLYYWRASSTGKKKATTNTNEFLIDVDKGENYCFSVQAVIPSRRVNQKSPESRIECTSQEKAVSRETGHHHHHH", "assay": "Biacore SPR, antibody captured by anti-human IgG on CM5, pig TF-His titrated from 100 nM, 1:1 fit", "method": "The ability of certain antibodies was tested for binding to pig TF. For pig TF Biacore-based measurements, a given anti-TF antibody was captured by an anti-human IgG antibody covalently coupled to a CM5 chip (GE Healthcare Bio-Sciences). Association between the anti-TF antibodies and a five-point three-fold titration of pig TF-His starting at 100 nM was measured for 180 to 240 sec. Subsequently, dissociation between the anti-TF antibody and TF-His was measured for 1800 sec. Kinetic data was analyzed and fitted globally using a 1:1 binding model."}}, "note": "Like-named read-outs stand apart in the source and are kept apart here.", "data": [{"binder": "B1", "values": [{"measurement": "percent antibody binding to TF construct relative to hTF", "setting": "h1-77_r", "value": 0, "unit": "%"}, {"measurement": "percent antibody binding to TF construct relative to hTF", "setting": "h78-107_r.v2", "value": 0, "unit": "%"}, {"measurement": "percent antibody binding to TF construct relative to hTF", "setting": "rTF (rat TF) [1]", "value": 0, "unit": "%"}, {"measurement": "percent antibody binding to TF construct relative to hTF", "setting": "h1-107_r", "value": 0, "unit": "%"}, {"measurement": "percent antibody binding to TF construct relative to hTF", "setting": "r141-194_h", "value": 0, "unit": "%"}, {"measurement": "percent antibody binding to TF construct relative to hTF", "setting": "hTF_N171H_T197K", "value": 98, "unit": "%"}, {"measurement": "percent antibody binding to TF construct relative to hTF", "setting": "rTF (rat TF) [2]", "value": 0, "unit": "%"}, {"measurement": "percent antibody binding to TF construct relative to hTF", "setting": "[3]", "value": 100, "unit": "%"}]}, {"binder": "B2", "values": [{"measurement": "IC50", "setting": "[4]", "value": 1.72, "unit": "nM"}, {"measurement": "binding result", "setting": "[5]", "value": "no binding (tested: 250 nM)"}, {"measurement": "Kd", "setting": "[6]", "value": 1.83, "unit": "nM"}, {"measurement": "Kd", "setting": "human TF ECD-His6 [7]", "value": 0.42, "unit": "nM"}, {"measurement": "Kd", "setting": "[8]", "value": 4.16, "unit": "nM"}, {"measurement": "Kd", "setting": "human TF ECD-His6 [9]", "value": 1.59, "unit": "nM"}, {"measurement": "IC50 (read off the curve)", "setting": "[10]", "value": "~4", "unit": "nM"}, {"measurement": "MFI at 250 nM", "setting": "[11]", "value": 2700}, {"measurement": "EC50", "setting": "[12]", "value": 0.89, "unit": "nM"}, {"measurement": "binding result", "setting": "[13]", "value": "no binding"}, {"measurement": "EC50", "setting": "[14]", "value": 0.36, "unit": "nM"}, {"measurement": "EC50", "setting": "[15]", "value": 0.239, "unit": "nM"}]}, {"binder": "B3", "values": [{"measurement": "Kd", "setting": "pig TF-His", "value": 3.31, "unit": "nM"}]}]}
